Data taken from publication PMC6855462.

Target: FL H1#5070 (full-length HA of H1 A/Brisbane/59/2007, C-terminally modified with a sortase A LPXTG recognition sequence, biotinylated HA probe) (influenza A virus H1 A/Brisbane/59/2007)
Assay: SEC-MALS; Superdex 200 10-300 GL column, after sortase-mediated biotinylation; trimeric fractions collected; stored in 20mM Tris, 150mM NaCl, pH7.8

Which stoichiometry N does the source give for “FL H1#5070 (full-length HA of H1 A/Brisbane/59/2007, C-terminally modified with a sortase A LPXTG recognition sequence, biotinylated HA probe) (natural protein)” here?
The stoichiometry N was 3.
